Data taken from patent publication US20230250148A1 (published 2023).
Positions count from the first letter of the chain named. Like-named read-outs stand apart in the source and are kept apart here.

B1: insulin-Fc fusion protein of SEQ ID NO: 36 (Fc fusion)
chain: FVNQHLCGSDLVEALALVCGERGFFYTDPTGGGPRRGIVEQCCHSICSLYQLENYCNGGGGAGGGGDCPKCPAPEMLGGPSVFIFPPKPKDTLLIARTPEVTCVVVDLDPEDPEVQISWFVDGKQMQTAKTQPREEQFNGTYRVVSVLPIGHQDWLKGKQFTCKVNNKALPSPIERTISKARGQAHQPSVYVLPPSREELSKNTVSLTCLIKDFFPPDIDVEWQSNGQQEPESKYRTTPPQLDEDGSYFLYSKLSVDKSRWQRGDTFICAVMHEALHNHYTQESLSHSPG
modifications: native N-glycosylation site cNg-NB139
notes: HEK293 homodimer
B2: insulin-Fc fusion protein of SEQ ID NO: 40 (Fc fusion)
chain: B1 chain with N139S
notes: non-glycosylated
B3: insulin-Fc fusion protein of SEQ ID NO: 41 (Fc fusion)
chain: B1 chain with N139D
notes: non-glycosylated
B4: insulin-Fc fusion protein of SEQ ID NO: 48 (Fc fusion)
chain: FVNQHLCGSHLVEALALVCGERGFFYTDPTGGGPRRGIVEQCCTSICSLYQLENYCGGGGAGGGGDCPKCPAPEMLGGPSVFIFPPKPKDTLLIARTPEVTCVVVDLDPEDPEVQISWFVDGKQMQTAKTQPREEQFSGTYRVVSVLPIGHQDWLKGKQFTCKVNNKALPSPIERTISKARGQAHQPSVYVLPPSREELSKNTVSLTCLIKDFFPPDIDVEWQSNGQQEPESKYRTTPPQLDEDGSYFLYSKLSVDKSRWQRGDTFICAVMHEALHNHYTQESLSHSPG
B5: insulin-Fc fusion protein of SEQ ID NO: 31 (Fc fusion)
chain: FVNQHLCGSDLVEALALVCGERGFFYTDPTGGGPRRGIVEQCCHSICSLYQLENYCNGGGGAGGGGRCTDTPPCPVPEPLGGPSVLIFPPKPKDILRITRTPEVTCVVLDLGREDPEVQISWFVDGKEVHTAKTQSREQQFNGTYRVVSVLPIEHQDWLTGKEFKCRVNHIDLPSPIERTISKARGRAHKPSVYVLPPSPKELSSSDTVSITCLIKDFYPPDIDVEWQSNGQQEPERKHRMTPPQLDEDGSYFLYSKLSVDKSRWQQGDPFTCAVMHETLQNHYTDLSLSHSPG
notes: HEK293; only 24% homodimer
B6: insulin-Fc fusion protein of SEQ ID NO: 53 (Fc fusion)
chain: FVNQHLCGSHLVEALALVCGERGFFYTDPTGGGPRRGIVEQCCTSICSLYQLENYCGGGGGQGGGGQGGGGQGGGGGDCPKCPAPEMLGGPSVFIFPPKPKDTLLIARTPEVTCVVVDLDPEDPEVQISWFVDGKQMQTAKTQPREEQFSGTYRVVSVLPIGHQDWLKGKQFTCKVNNKALPSPIERTISKARGQAHQPSVYVLPPSREELSKNTVSLTCLIKDFFPPDIDVEWQSNGQQEPESKYRTTPPQLDEDGSYFLYSKLSVDKSRWQRGDTFICAVMHEALHNHYTQESLSHSPG

Columns and labels:
[1] = molecular target: T1, human insulin receptor (IR) on human IM-9 cells (human, UniProt P06213 28-1382); assay: competition with biotinylated RHI on IM-9 cells, flow cytometry, 4 C
T1 construct: whole, on cells; also called human IR
T1 sequence (P06213 28-1382): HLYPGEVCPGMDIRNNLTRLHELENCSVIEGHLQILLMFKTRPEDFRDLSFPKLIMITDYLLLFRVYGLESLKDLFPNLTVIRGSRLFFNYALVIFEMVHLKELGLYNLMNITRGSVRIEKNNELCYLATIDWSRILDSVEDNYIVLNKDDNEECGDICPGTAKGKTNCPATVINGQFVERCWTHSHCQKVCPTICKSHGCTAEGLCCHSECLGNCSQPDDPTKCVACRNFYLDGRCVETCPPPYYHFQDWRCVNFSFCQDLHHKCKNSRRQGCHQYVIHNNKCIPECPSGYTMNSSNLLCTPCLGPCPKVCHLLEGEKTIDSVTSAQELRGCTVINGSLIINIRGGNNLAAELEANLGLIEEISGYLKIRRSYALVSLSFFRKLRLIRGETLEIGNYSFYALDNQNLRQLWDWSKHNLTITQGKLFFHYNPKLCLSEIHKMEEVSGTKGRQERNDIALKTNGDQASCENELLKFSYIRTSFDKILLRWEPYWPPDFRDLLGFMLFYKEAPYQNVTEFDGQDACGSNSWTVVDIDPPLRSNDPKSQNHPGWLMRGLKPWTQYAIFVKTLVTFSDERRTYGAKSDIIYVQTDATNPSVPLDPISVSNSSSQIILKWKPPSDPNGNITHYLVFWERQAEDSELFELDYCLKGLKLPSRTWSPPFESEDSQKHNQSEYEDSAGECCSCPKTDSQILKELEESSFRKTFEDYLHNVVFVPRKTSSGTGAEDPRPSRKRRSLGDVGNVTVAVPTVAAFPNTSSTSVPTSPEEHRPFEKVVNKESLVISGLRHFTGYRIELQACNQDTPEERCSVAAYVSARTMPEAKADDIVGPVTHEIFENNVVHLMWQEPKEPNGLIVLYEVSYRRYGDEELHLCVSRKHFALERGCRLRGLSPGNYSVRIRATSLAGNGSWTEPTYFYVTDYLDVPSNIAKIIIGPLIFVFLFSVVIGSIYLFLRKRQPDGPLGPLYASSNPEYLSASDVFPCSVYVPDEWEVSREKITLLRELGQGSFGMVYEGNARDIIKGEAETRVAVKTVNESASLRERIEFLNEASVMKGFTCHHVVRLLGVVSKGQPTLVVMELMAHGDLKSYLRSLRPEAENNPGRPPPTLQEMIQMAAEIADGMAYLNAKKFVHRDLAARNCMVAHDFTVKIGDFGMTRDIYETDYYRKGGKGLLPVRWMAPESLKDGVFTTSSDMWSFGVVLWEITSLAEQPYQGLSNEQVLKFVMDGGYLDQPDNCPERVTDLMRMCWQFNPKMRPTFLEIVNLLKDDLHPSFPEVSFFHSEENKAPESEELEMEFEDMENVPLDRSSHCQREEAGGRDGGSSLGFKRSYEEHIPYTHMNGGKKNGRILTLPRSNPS
Description: (§1) 40 µL of an IM-9 cell suspension (8×10⁶ cells/mL) was then added to each well by multichannel pipette, mixed again gently and incubated on ice for 30 min to allow competitive binding on the IR on IM-9 cells. Cells were then washed twice with 275µL of ice-cold FACS wash buffer (HBSS/2mM EDTA/0.1% Na-azide + 0.5% horse serum) by centrifuging the V-bottom plate at 3000 rpm for 3 min and aspirating the supernatant. Cells were then resuspended in 40µL of FACS staining medium containing 1:100 diluted Streptavidin-PE (Life Technologies) for 20 min on ice. Cells were then washed once with 275 µL of ice-cold FACS buffer and finally fixed with 3% paraformaldehyde for 10 min at room temp. Cells were then washed once with 275 µL of ice-cold FACS buffer and resuspended in 250µl of FACS buffer for analysis.
In vitro insulin receptor binding for the insulin-Fc fusion proteins of SEQ ID NO: 36 and SEQ ID NO: 38 was tested according to the procedure of Example 12.

[2] = molecular target: T2, biotinylated recombinant human Fc(gamma)RI (human, UniProt P12314 16-288, biotinylated, site not stated); assay: ELISA, fusion protein coated, biotinylated rhFc(gamma)RI in solution
T2 construct: Bought reagent; construct not described; also called rhFc(gamma)RI; Fc(gamma) receptor I
T2 sequence (P12314 16-288 limits assumed): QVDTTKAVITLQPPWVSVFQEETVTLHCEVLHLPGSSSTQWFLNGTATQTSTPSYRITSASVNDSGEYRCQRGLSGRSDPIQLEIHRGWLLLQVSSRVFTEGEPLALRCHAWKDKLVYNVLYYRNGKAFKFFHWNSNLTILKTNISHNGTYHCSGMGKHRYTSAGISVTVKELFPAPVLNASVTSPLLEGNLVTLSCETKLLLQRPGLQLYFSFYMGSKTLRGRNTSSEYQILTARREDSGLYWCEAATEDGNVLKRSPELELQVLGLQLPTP
Description: (§2) The binding of insulin-Fc fusion proteins to the Fc(gamma)RI at pH 7.4 is conducted using an ELISA assay as follows using human Fc(gamma)RI (i.e., rhFc(gamma)RI). Insulin-Fc fusion proteins are diluted to 10 µg/mL in sodium bicarbonate buffer at pH 9.6 and coated on Maxisorp (Nunc) microtiter plates overnight at 4° C., after which the microplate strips are washed 5 times with PBST (PBS/0.05% Tween-20) buffer and blocked with Superblock blocking reagent (ThermoFisher). Serial dilutions of biotinylated rhFc(gamma)RI (recombinant human Fc(gamma)RI; R&D Systems) are prepared in PBST/10% Superblock buffer from 3000 ng/mL to 4.1 ng/mL and loaded at 100 µL/well onto the microplate strips coated with insulin-Fc fusion protein. The microtiter plate is incubated for 1 hour at room temperature after which time the microplate strips are washed 5 times with PBST and then loaded with 100 µL/well of streptavidin-HRP diluted 1:10000 in PBST/10% Superblock buffer. After incubating for 45 min, the microplate strips are washed again 5 times with PBST. TMB is added to reveal the bound Fc(gamma)RI proteins and is stopped with ELISA stop reagent (Boston Bioproducts). The plate is read in an ELISA plate reader at 450 nm, and the OD450 values (proportional to the binding of rhFc(gamma)RI to insulin-Fc protein) are plotted against log concentrations of rhFc(gamma)RI added to each well to generate binding curves using GraphPad Prism software. For groupings of compounds with somewhat similar curves, the OD450 at one of the higher concentrations, for instance at rhFc(gamma)RI concentrations of 3000 ng/mL, can be used to identify differences between coated insulin-Fc fusion protein compounds. […]

[3] = molecular target: T2, biotinylated recombinant human …; assay: ELISA, fusion protein coated, biotinylated rhFc(gamma)RI at 3000 ng/mL
Description: as §2
Finally, select compounds were tested for their likelihood to interact with the immune system by measuring their Fc(gamma) receptor binding activity according to the procedure of Example 15.

[4] = molecular target: T2, biotinylated recombinant human …; assay: ELISA, fusion protein coated, biotinylated rhFc(gamma)RI in solution; remark: listed apart in the source
[5] = molecular target: T1, human insulin receptor (IR) on human …; assay: competition with biotinylated RHI on IM-9 cells, flow cytometry, 4 C; remark: listed apart in the source
Description: as §1
The two insulin-Fc fusion proteins were manufactured in HEK293 cells according to Example 1 and purified using a Protein A column according to Example 4. Their structures were confirmed according to Example 6 by non-reducing and reducing CE-SDS, and the sequences were further identified by LC-MS with glycan removal according to Example 8. Their %homodimer content was measured by size-exclusion chromatography according to Example 10, and their insulin receptor binding affinities were measured according to Example 12.

Binder	IC50 [1] [nM]	OD450nm [2]	OD450nm minus assay background [2]	ratio to SEQ ID NO: 36 [2]	IC50 [5] [nM]	further results
B1	28	0.386	0.323	1		OD450nm [3]: 0.428; OD450nm minus assay background [3]: 0.371; ratio to SEQ ID NO: 36 [3]: 1
B2		0.14	0.077	0.24		fold lower Fc(gamma)RI binding against SEQ ID NO: 36 [4]: 4 fold
B3		0.204	0.141	0.44		fold Fc(gamma) receptor binding activity against SEQ ID NO: 40 and SEQ ID NO: 42 [4]: ~2 fold
B4					> 5000	
B5	2730					
B6					1280	
